Consider nine substances from the supplement of paper PMC5998384.

Series [1] concerns HeLa Kyoto. The experiment in a line: thermal stability score vs G1/S (z-score of summed log2 fold changes over temperatures); higher = more thermally stable than in G1/S.
The test system of series [2] is HeLa Kyoto. The series can be described thus: solubility in G1/S (NP-40 vs SDS abundance) (log2 ratio); higher = more soluble. The conditions noted are these: cell cycle stage: G1/S.
For series [3], the system named is HeLa Kyoto. The experiment in a line: melting temperature (median over replicates), in situ; higher = more thermally stable.
For series [4], the system named is HeLa Kyoto. The experiment in a line: solubility change mitosis vs G1/S (difference of NP-40 vs SDS log2 ratios) (log2 ratio difference); higher = more soluble in mitosis.
Setting [5] is: cell cycle stage: early G1 (4.5 h after nocodazole release).
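Wherever melting temperature (median over replicates), in situ is given: HeLa Kyoto cells synchronized by double thymidine or nocodazole block, proteins quantified by TMT10plex mass spectrometry, three independent biological replicates.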
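Wherever solubility change mitosis vs G1/S (difference of NP-40 vs SDS log2 ratios) is given: synchronized HeLa Kyoto cells (double thymidine block for G1/S, nocodazole release for mitosis), protein amounts in NP-40 versus SDS lysates quantified by mass spectrometry, three biological replicates.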
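Wherever solubility in G1/S (NP-40 vs SDS abundance) is given: HeLa Kyoto cells arrested at G1/S by double thymidine block, proteins quantified by TMT10plex mass spectrometry in mild NP-40 versus SDS extracts, three biological replicates.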
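Wherever thermal stability score vs G1/S (z-score of summed log2 fold changes over temperatures) is given: synchronized HeLa Kyoto cells, proteins quantified by TMT10plex mass spectrometry, three biological replicates, mitosis taken 0.5 h after nocodazole release, G1/S directly after double thymidine block.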

For the substance “MFSFEGDFKTRPKVSLGGASRKEEKASLLHRTQEERRKREEERRRLKNAIIIQSFIRGYRDRKQQYSIQRSAFDRCATLSQSGGAFPIANGPNLTLLVRQLLFFYKQNEDSKRLIWLYQNLIKHSSLFVKQLDGSERLTCLFQIKRLMSLCCRLLQNCNDDSLNVALPMRMLEVFSSENTYLPVLQDASYVVSVIEQILHYMIHNGYYRSLYLLINSKLPSSIEYSDLSRVPIAKILLENVLKPLHFTYNSCPEGARQQVFTAFTEEFLAAPFTDQIFHFIIPALADAQTVFPYEPFLNALLLIESRCSRKSGGAPWLFYFVLTVGENYLGALSEEGLLVYLRVLQTFLSQLPVSPASASCHDSASDSEEESEEADKPSSPEDGRLSVSYITEECLKKLDTKQQTNTLLNLVWRDSASEEVFTTMASVCHTLMVQHRMMVPKVRLLYSLAFNARFLRHLWFLISSMSTRMITGSMVPLLQVISRGSPMSFEDSSRIIPLFYLFSSLFSHSLISIHDNEFFGDPIEVVGQRQSSMMPFTLEELIMLSRCLRDACLGIIKLAYPETKPEVREEYITAFQSIGVTTSSEMQQCIQMEQKRWIQLFKVITNLVKMLKSRDTRRNFCPPNHWLSEQEDIKADKVTQLYVPASRHVWRFRRMGRIGPLQSTLDVGLESPPLSVSEERQLAVLTELPFVVPFEERVKIFQRLIYADKQEVQGDGPFLDGINVTIRRNYIYEDAYDKLSPENEPDLKKRIRVHLLNAHGLDEAGIDGGGIFREFLNELLKSGFNPNQGFFKTTNEGLLYPNPAAQMLVGDSFARHYYFLGRMLGKALYENMLVELPFAGFFLSKLLGTSADVDIHHLASLDPEVYKNLLFLKSYEDDVEELGLNFTVVNNDLGEAQVVELKFGGKDIPVTSANRIAYIHLVADYRLNRQIRQHCLAFRQGLANVVSLEWLRMFDQQEIQVLISGAQVPISLEDLKSFTNYSGGYSADHPVIKVFWRVVEGFTDEEKRKLLKFVTSCSRPPLLGFKELYPAFCIHNGGSDLERLPTASTCMNLLKLPEFYDETLLRSKLLYAIECAAGFELS [UBE3C]”, the thermal stability score with HeLa Kyoto [1] (setting [5]) was determined as 0.499; in the series with HeLa Kyoto [1] (cell cycle stage: mitosis) it was 0.996. In the series on HeLa Kyoto [2], the “solubility in G1/S (log2)” value was -0.181. Moreover, the melting temperature came to 50.3 °C in the series on HeLa Kyoto [3] (cell cycle stage: G1/S) and 50.1 °C with HeLa Kyoto [3] (cell cycle stage: mitosis). Further, in the series on HeLa Kyoto [4], the “solubility change mitosis (log2)” value was -0.263.

As to “MAGKQAVSASGKWLDGIRKWYYNAAGFNKLGLMRDDTIYEDEDVKEAIRRLPENLYNDRMFRIKRALDLNLKHQILPKEQWTKYEEENFYLEPYLKEVIRERKEREEWAKK [UQCRB]”, the values for the thermal stability score with HeLa Kyoto [1] (setting [5]) and with HeLa Kyoto [1] (cell cycle stage: mitosis) were -3.18 and -2.78, respectively. The “solubility in G1/S (log2)” value in the series on HeLa Kyoto [2] was -0.132. Further, the results for the melting temperature in the series with HeLa Kyoto [3] (cell cycle stage: G1/S) and in the series with HeLa Kyoto [3] (cell cycle stage: mitosis) were 53.9 °C and 52.2 °C, respectively. Further, the “solubility change mitosis (log2)” value in the series on HeLa Kyoto [4] is 0.253.

Take “MMKLRHKNKKPGEGSKGHKKISWPYPQPAKQNGKKATSKVPSAPHFVHPNDHANREAELKKKWVEEMREKQQAAREQERQKRRTIESYCQDVLRRQEEFEHKEEVLQELNMFPQLDDEATRKAYYKEFRKVVEYSDVILEVLDARDPLGCRCFQMEEAVLRAQGNKKLVLVLNKIDLVPKEVVEKWLDYLRNELPTVAFKASTQHQVKNLNRCSVPVDQASESLLKSKACFGAENLMRVLGNYCRLGEVRTHIRVGVVGLPNVGKSSLINSLKRSRACSVGAVPGITKFMQEVYLDKFIRLLDAPGIVPGPNSEVGTILRNCVHVQKLADPVTPVETILQRCNLEEISNYYGVSGFQTTEHFLTAVAHRLGKKKKGGLYSQEQAAKAVLADWVSGKISFYIPPPATHTLPTHLSAEIVKEMTEVFDIEDTEQANEDTMECLATGESDELLGDTDPLEMEIKLLHSPMTKIADAIENKTTVYKIGDLTGYCTNPNRHQMGWAKRNVDHRPKSNSMVDVCSVDRRSVLQRIMETDPLQQGQALASALKNKKKMQKRADKIASKLSDSMMSALDLSGNADDGVGD [GNL3L]”: the thermal stability score turned out to be 3.18 in the series with HeLa Kyoto [1] (setting [5]) and 4.42 with HeLa Kyoto [1] (cell cycle stage: mitosis). The “solubility in G1/S (log2)” value in the series with HeLa Kyoto [2] is -0.846. Moreover, the melting temperature in the series with HeLa Kyoto [3] (cell cycle stage: G1/S) was found to be 48.1 °C; in the series on HeLa Kyoto [3] (cell cycle stage: mitosis), 50.3 °C. Moreover, the “solubility change mitosis (log2)” value with HeLa Kyoto [4] amounted to 0.334.

As to “MEPVGCCGECRGSSVDPRSTFVLSNLAEVVERVLTFLPAKALLRVACVCRLWRECVRRVLRTHRSVTWISAGLAEAGHLEGHCLVRVVAEELENVRILPHTVLYMADSETFISLEECRGHKRARKRTSMETALALEKLFPKQCQVLGIVTPGIVVTPMGSGSNRPQEIEIGESGFALLFPQIEGIKIQPFHFIKDPKNLTLERHQLTEVGLLDNPELRVVLVFGYNCCKVGASNYLQQVVSTFSDMNIILAGGQVDNLSSLTSEKNPLDIDASGVVGLSFSGHRIQSATVLLNEDVSDEKTAEAAMQRLKAANIPEHNTIGFMFACVGRGFQYYRAKGNVEADAFRKFFPSVPLFGFFGNGEIGCDRIVTGNFILRKCNEVKDDDLFHSYTTIMALIHLGSSK [FBXO22]”, the thermal stability score in the series on HeLa Kyoto [1] (setting [5]) was -9.18; in the series with HeLa Kyoto [1] (cell cycle stage: mitosis), -9.79. The “solubility in G1/S (log2)” value with HeLa Kyoto [2] was -0.097. Also, the figures for the melting temperature in the series on HeLa Kyoto [3] (cell cycle stage: G1/S) and with HeLa Kyoto [3] (cell cycle stage: mitosis) were 55.1 °C and 53.1 °C, respectively. Also, the “solubility change mitosis (log2)” value in the series with HeLa Kyoto [4] is -0.22.

Take “MEDGKPVWAPHPTDGFQMGNIVDIGPDSLTIEPLNQKGKTFLALINQVFPAEEDSKKDVEDNCSLMYLNEATLLHNIKVRYSKDRIYTYVANILIAVNPYFDIPKIYSSEAIKSYQGKSLGTRPPHVFAIADKAFRDMKVLKMSQSIIVSGESGAGKTENTKFVLRYLTESYGTGQDIDDRIVEANPLLEAFGNAKTVRNNNSSRFGKFVEIHFNEKSSVVGGFVSHYLLEKSRICVQGKEERNYHIFYRLCAGASEDIREKLHLSSPDNFRYLNRGCTRYFANKETDKQILQNRKSPEYLKAGSMKDPLLDDHGDFIRMCTAMKKIGLDDEEKLDLFRVVAGVLHLGNIDFEEAGSTSGGCNLKNKSAQSLEYCAELLGLDQDDLRVSLTTRVMLTTAGGTKGTVIKVPLKVEQANNARDALAKTVYSHLFDHVVNRVNQCFPFETSSYFIGVLDIAGFEYFEHNSFEQFCINYCNEKLQQFFNERILKEEQELYQKEGLGVNEVHYVDNQDCIDLIEAKLVGILDILDEENRLPQPSDQHFTSAVHQKHKDHFRLTIPRKSKLAVHRNIRDDEGFIIRHFAGAVCYETTQFVEKNNDALHMSLESLICESRDKFIRELFESSTNNNKDTKQKAGKLSFISVGNKFKTQLNLLLDKLRSTGASFIRCIKPNLKMTSHHFEGAQILSQLQCSGMVSVLDLMQGGYPSRASFHELYNMYKKYMPDKLARLDPRLFCKALFKALGLNENDYKFGLTKVFFRPGKFAEFDQIMKSDPDHLAELVKRVNHWLTCSRWKKVQWCSLSVIKLKNKIKYRAEACIKMQKTIRMWLCKRRHKPRIDGLVKVGTLKKRLDKFNEVVSVLKDGKPEMNKQIKNLEISIDTLMAKIKSTMMTQEQIQKEYDALVKSSEELLSALQKKKQQEEEAERLRRIQEEMEKERKRREEDEKRRRKEEEERRMKLEMEAKRKQEEEERKKREDDEKRIQAEVEAQLARQKEEESQQQAVLEQERRDRELALRIAQSEAELISDEAQADLALRRSLDSYPVSKNDGTRPKMTPEQMAKEMSEFLSRGPAVLATKAAAGTKKYDLSKWKYAELRDTINTSCDIELLAACREEFHRRLKVYHAWKSKNKKRNTETEQRAPKSVTDYDFAPFLNNSPQQNPAAQIPARQREIEMNRQQRFFRIPFIRPADQYKDPQSKKKGWWYAHFDGPWIARQMELHPDKPPILLVAGKDDMEMCELNLEETGLTRKRGAEILPRQFEEIWERCGGIQYLQNAIESRQARPTYATAMLQSLLK [MYO6]”: the thermal stability score with HeLa Kyoto [1] (setting [5]) was -0.962; in the series on HeLa Kyoto [1] (cell cycle stage: mitosis) it was -1.32. In addition, in the series with HeLa Kyoto [2], the “solubility in G1/S (log2)” value was -0.238. Besides, the melting temperature in the series with HeLa Kyoto [3] (cell cycle stage: G1/S) amounted to 52.1 °C; with HeLa Kyoto [3] (cell cycle stage: mitosis), 51.5 °C. The “solubility change mitosis (log2)” value in the series on HeLa Kyoto [4] is -0.164.

As to RIF1, the values for the thermal stability score with HeLa Kyoto [1] (setting [5]) and with HeLa Kyoto [1] (cell cycle stage: mitosis) were 2.16 and 5.52, respectively. Moreover, the “solubility in G1/S (log2)” value in the series on HeLa Kyoto [2] is -0.28. In addition, the melting temperature turned out to be 47.3 °C with HeLa Kyoto [3] (cell cycle stage: G1/S) and 49.6 °C in the series on HeLa Kyoto [3] (cell cycle stage: mitosis). Further, the “solubility change mitosis (log2)” value in the series with HeLa Kyoto [4] worked out at 0.0253.

Regarding “MAALVVSGAAEQGGRDGPGRGRAPRGRVANQIPPEILKNPQLQAAIRVLPSNYNFEIPKTIWRIQQAQAKKVALQMPEGLLLFACTIVDILERFTEAEVMVMGDVTYGACCVDDFTARALGADFLVHYGHSCLIPMDTSAQDFRVLYVFVDIRIDTTHLLDSLRLTFPPATALALVSTIQFVSTLQAAAQELKAEYRVSVPQCKPLSPGEILGCTSPRLSKEVEAVVYLGDGRFHLESVMIANPNVPAYRYDPYSKVLSREHYDHQRMQAARQEAIATARSAKSWGLILGTLGRQGSPKILEHLESRLRALGLSFVRLLLSEIFPSKLSLLPEVDVWVQVACPRLSIDWGTAFPKPLLTPYEAAVALRDISWQQPYPMDFYAGSSLGPWTVNHGQDRRPHAPGRPARGKVQEGSARPPSAVACEDCSCRDEKVAPLAP [DPH1]”, the thermal stability score was -0.776 with HeLa Kyoto [1] (setting [5]) and -1.19 in the series on HeLa Kyoto [1] (cell cycle stage: mitosis). Moreover, in the series on HeLa Kyoto [2], the “solubility in G1/S (log2)” value was determined as 0.145. For the same substance, the melting temperature in the series with HeLa Kyoto [3] (cell cycle stage: G1/S) and in the series with HeLa Kyoto [3] (cell cycle stage: mitosis) was 53 °C in each case. Moreover, the “solubility change mitosis (log2)” value in the series with HeLa Kyoto [4] is -0.202.

On to “MLVLRSALTRALASRTLAPQMCSSFATGPRQYDGIFYEFRSYYLKPSKMNEFLENFEKNAHLRTAHSELVGYWSVEFGGRMNTVFHIWKYDNFAHRTEVRKALAKDKEWQEQFLIPNLALIDKQESEITYLVPWCKLEKPPKEGVYELATFQMKPGGPALWGDAFKRAVHAHVNLGYTKLVGVFHTEYGALNRVHVLWWNESADSRAAGRHKSHEDPRVVAAVRESVNYLVSQQNMLLIPTSFSPLK [NIPSNAP3A]”, for which the thermal stability score is -1.76 with HeLa Kyoto [1] (setting [5]) and -2.47 with HeLa Kyoto [1] (cell cycle stage: mitosis). In addition, the “solubility in G1/S (log2)” value in the series on HeLa Kyoto [2] is -0.107. The melting temperature in the series with HeLa Kyoto [3] (cell cycle stage: G1/S) is 56.2 °C; in the series on HeLa Kyoto [3] (cell cycle stage: mitosis) it was 57.7 °C. Besides, in the series with HeLa Kyoto [4], the “solubility change mitosis (log2)” value is -0.224.

For the substance ABCC5, the figures for the thermal stability score in the series on HeLa Kyoto [1] (setting [5]) and with HeLa Kyoto [1] (cell cycle stage: mitosis) were -0.48 and -1.25, respectively. The “solubility in G1/S (log2)” value in the series with HeLa Kyoto [2] was -0.243. In addition, the melting temperature in the series on HeLa Kyoto [3] (cell cycle stage: G1/S) came to 53.6 °C; in the series on HeLa Kyoto [3] (cell cycle stage: mitosis), 53.8 °C. The “solubility change mitosis (log2)” value in the series with HeLa Kyoto [4] was found to be 0.0132.
